In assay [1] the target is T1, TSLPR on TSLPR-expressing REH cells (UniProt Q9HC73 23-371).
T1 sequence (looked up): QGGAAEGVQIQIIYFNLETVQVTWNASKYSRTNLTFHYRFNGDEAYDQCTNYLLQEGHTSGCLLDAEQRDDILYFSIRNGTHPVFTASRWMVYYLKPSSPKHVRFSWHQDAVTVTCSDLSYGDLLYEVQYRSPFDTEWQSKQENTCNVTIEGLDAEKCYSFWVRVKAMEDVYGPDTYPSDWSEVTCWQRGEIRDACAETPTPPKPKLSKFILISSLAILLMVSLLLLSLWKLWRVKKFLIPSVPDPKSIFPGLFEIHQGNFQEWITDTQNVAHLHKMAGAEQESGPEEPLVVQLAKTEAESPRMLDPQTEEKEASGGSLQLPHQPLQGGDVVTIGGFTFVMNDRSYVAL
Put plainly: cell-based or functional assay.

In assay [2] the target is T2, his-tagged TSLPR (TSLPR-HIS) (UniProt Q9HC73 23-231, limits assumed).
T2 construct: Soluble protein used in the ForteBio assay; not shown: His tag
T2 sequence (looked up): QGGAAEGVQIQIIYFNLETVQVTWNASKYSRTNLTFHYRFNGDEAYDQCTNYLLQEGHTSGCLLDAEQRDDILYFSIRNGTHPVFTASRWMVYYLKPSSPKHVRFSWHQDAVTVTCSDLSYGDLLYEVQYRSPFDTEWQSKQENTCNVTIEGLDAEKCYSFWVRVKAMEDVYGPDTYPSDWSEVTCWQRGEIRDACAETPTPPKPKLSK
Put plainly: BLI (ForteBio AHQ sensor), antibody captured, TSLPR-HIS in solution. On the procedure: TSLPR antibody clones whose VH and VL sequences are disclosed in Tables 9 and 10 were bound to the AHQ sensor and his-tagged TSLPR (TSLPR-HIS) was provided in solution. […] The anti-TSLPR antibodies were serially diluted with an HBS-EP solution (GE Healthcare), and 100 μL of the solution was added to the flow path at a flow rate of […].

Another assay deals with cynomolgus TSLPR (cynomolgus). The assay is described as follows: SPR (BIAcore).
The target in a further assay is T3, human TSLPR protein (human, UniProt Q9HC73 23-231, limits assumed).
T3 sequence (looked up): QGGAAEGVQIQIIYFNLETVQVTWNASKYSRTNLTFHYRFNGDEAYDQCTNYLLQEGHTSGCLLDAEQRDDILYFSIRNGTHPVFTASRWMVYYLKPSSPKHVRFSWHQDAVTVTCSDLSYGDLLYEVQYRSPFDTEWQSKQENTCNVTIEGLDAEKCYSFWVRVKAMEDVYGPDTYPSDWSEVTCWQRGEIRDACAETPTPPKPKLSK
Put plainly: SPR (BIAcore).

B1: TSLPR antibody clone 1B7 (antibody, V domains shown)
VH: QVQLQESGPGLVKPSGTLSLTCAVSGGSISSSNWWSWVRQPPGKGLEWIGEIYHGGTTNNNPSLKSRVTISVDKSKSQFSLKLSSVTAADTAVYYCARHRYSNGLDYWGQGTLVTVSS
VL: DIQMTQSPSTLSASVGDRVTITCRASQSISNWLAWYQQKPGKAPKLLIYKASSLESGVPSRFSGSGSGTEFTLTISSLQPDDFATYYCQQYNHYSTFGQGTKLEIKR
notes: also called TSLPR-6; TSLPR-006
With B1, the “EC50 (Promega ADCC reporter assay, RLU)” value in assay [1] was 0.08 nM. In assay [2], the dissociation constant (Kd) came out at 2.82 nM, the koff is 0.00079 s⁻¹ and the kon worked out at 280000 M⁻¹ s⁻¹. Further, in the assay with cynomolgus TSLPR, the dissociation constant (Kd) was ~2.03 nM. Moreover, the dissociation constant Kd with human TSLPR protein was ~2.87 nM.

B2: TSLPR antibody clone 1A9 (antibody, V domains shown)
VH: QVQLQESGPGLVKPSETLSLTCAVSGYSISSGYYWGWIRQPPGKGLEWIGRIYHSGTTSYNPSLKRRVTISVDTSKNQFSLKLSSVTATDTAVYYCARNWGGNWFDPWGQGTLVTVSS
VL: EIVLTQSPATLSLSPGERATLSCRASQSVSSYLAWYQQKPGQAPRLLIYDASNRATGIPARFSGSGSGTDFTLTISSLEPEDFAVYYCQQRSTWLTFGGGTKVDIKR
notes: also called TSLPR-4; TSLPR-004
Take B2: in assay [1], the “EC50 (Promega ADCC reporter assay, RLU)” value was found to be 0.03 nM. Moreover, in assay [2], the Kd worked out at 4.45 nM, the koff was 0.000769 s⁻¹ and the association rate constant (kon) is 173000 M⁻¹ s⁻¹.

(Values after patent publication US20240360233A1 (University of Texas, published 2024).)
